According to PMC6650244:

Legend:
[1] = target: BRD4 (bromodomain-containing protein 4) (UniProt Q9ESU6); assay: co-immunoprecipitation (IP: BMAL1) with immunoblot, chemiluminescence band intensity; settings: nuclear extracts, synchronized fibroblasts 24 hr after Dex, scale: relative band intensity
[2] = target: CDK9 (cyclin-dependent kinase 9) (UniProt Q99J95); assay: as above; settings: nuclear extracts, synchronized fibroblasts 24 hr after Dex, scale: relative band intensity
[3] = highest amount of IP (two-fold dilution series, lane 3 of 3)
[4] = lowest amount of IP (two-fold dilution series, lane 1 of 3)
[5] = middle amount of IP (two-fold dilution series, lane 2 of 3)

response [1, 3]: 0.1
response [1, 4]: 0.02
response [1, 5]: 0.06
response [2, 3]: 0.07
response [2, 4]: 0.01
response [2, 5]: 0.03
Substance: BMAL1 (brain and muscle ARNT-like protein 1) K538R
